Experimental findings from the RNAGym collection of RNA variant scans (doi:10.1093/molbev/msab373) are described below.

B1: Azoarcus group I ribozyme (parent)
chain: GUGCCUUGCGCCGGGAAACCACGCAAGGGAUGGUGUCAAAUUCGGCGAAACCUAAGCGCCCGCCCGGGCGUAUGGCAACGCCGAGCCAAGCUUCGGCGCCUGCGCCGAUGAAGGUGUAGAGACUAGACGGCACCCACCUAAGGCAAACGCUAUGGUGAAGGCAUAGUCCAGGGAGUGGCGAAAGUCACACAAACCGG

In this series the parent is B1. The experiment in a line: reverse-splicing fitness (ratio to wild type); higher = more active; in vitro selection; Mg2+ level not given. The method, boiled down:
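An in vitro group I ribozyme library with randomized positions was T7-transcribed and gel-purified. In triplicate, 10 pmol RNA in EPPS pH 7.5 was reacted with 50 pmoles of a 30-nt RNA substrate for 1 h at 37 °C across several added MgCl2 levels (1–48 mM), then stopped with EDTA. Products were reverse transcribed from a substrate-complementary primer, PCR-amplified and sequenced (HiSeq 4000). Fitness is a variant's read proportion after selection over that before, normalised to wild type.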
With C82G A111C A120U U176G, the reverse-splicing fitness is 0.00466.
Next, C82G A111G A120C A145U C150G C169G U176G: 0.00515; C82U A111G A120C A145U C150G C169G U176A: 0.0063.
Next, C82G A120C A145C U176A: 0.0678; C82U A111U A120C A145U C150G C169A U176G: 0.0051; C82G A111C A145C C150U: 0.0631.
The result for A111G A120U C150A U176A reads 0.0485; that for C82A A120C C150U C169G U176G, 0.00493; that for C82A A111G A120U A145G C150A C169G U176G, 0.00282.
As for C82G A111U A120U A145U C150A, the reverse-splicing fitness was 0.00721.
The result for C82A A111G A145C C150A C169G U176A reads 0.0291; that for C82A A111U A120G C169A U176A, 0.0188; that for C82A A111U A120C A145C C169G U176A, 0.0334.
For C82U A111U A120G A145U C150G U176C, the reverse-splicing fitness worked out at 0.00777.
Next, A120U C150G U176A: 0.0739; C82U A111G A120G A145C C169G U176G: 0.0039; C82U A111U A120C C150U U176A: 0.011.
The result for C82U A111G U176G reads 0.0517; that for C82G A111C A120G C169G, 0.0132.
Next, C82U A111G A120G A145U C150A C169G U176A: 0.0124; C82G A111C A120C U176C: 0.0268.
As for C82G A111C A120C U176A, the reverse-splicing fitness turned out to be 0.018.
The result for C82U A111G A120C C150U C169U U176C reads 0.0151; that for C82U A120U A145G C150A C169A U176G, 0.00241.
As to C82U A111G A120G C150U C169U U176A, the reverse-splicing fitness was found to be 0.0221.
With C82A A111G A120C A145C C150A C169U U176G, the reverse-splicing fitness is 0.00607.
Next, A111G A120G C150A C169U U176A: 0.0272; C82A A111C A120G A145C C169U U176G: 0.00467; C82G A111G A120U C150U C169U U176G: 0.00214.
Regarding C82A A111U A145G C150U C169G U176G, the reverse-splicing fitness was found to be 0.00676.
Next, A111C A145C C150G C169U U176G: 0.00607; A111U A145G C150G C169A: 0.0104.
Next, C82U A111G A120G A145C U176G: 0.00368; C82G A120C A145U C150G C169G U176A: 0.00782.
Take C82A A111G A145G C150A U176A: the reverse-splicing fitness came to 0.0293.
The result for C82U A111U A120G A145U C169G reads 0.00838.
Regarding C82U A111G A120U A145G C150A C169U U176C, the reverse-splicing fitness was determined as 0.00341.
Next, A111G A145C C150U C169U: 0.0495; C82A A111C C169U U176C: 0.0187.
The result for A111U A145C C150G U176A reads 0.153.
Next, A111U A120C A145G C150U U176A: 0.176; A120C A145U C150A C169A: 0.00801; A120G A145G C150A U176A: 0.0568.
Regarding C82A A111U A145U C150G C169U, the reverse-splicing fitness is 0.00971.
The result for C82U C150A U176C reads 0.0779; that for A111G A120G A145G C150A C169U U176A, 0.0309; that for C82A A111C A120C A145G C150G U176A, 0.00652.
The result for C82U A111C A145C C150A C169U U176A reads 0.0154.
The result for A111C A120C A145G C150A C169A reads 0.0101.
Regarding C82A A145C C150G C169G, the reverse-splicing fitness stood at 0.00828.
The result for C82A A120G A145U C150A C169A reads 0.00876; that for C82A A111U A145C C150A U176A, 0.0125; that for A111C A145U C150U U176G, 0.166.
The result for C82G A111G A145U C150A C169G U176G reads 0.00554.
Regarding C82A A111G A120G C169A U176A, the reverse-splicing fitness amounted to 0.0178.
The result for C82U A111C A145G C150A C169A reads 0.0093; that for C82U A111U A145C C150U, 0.0602; that for C82U A120U A145G C150U C169U U176G, 0.00198.
Next, A111G A120U U176G: 0.164; A120U A145C C150U C169A U176G: 0.00156.
Next, A111G C169U U176C: 0.0614; C82A A111C A145G C150A C169A: 0.011; C82U A120G C150A C169U: 0.00872.
Consider C82A A111G A120G A145G C150G, for which the reverse-splicing fitness amounted to 0.00769.
Next, C82G A120C C169G: 0.00817; C82A A111U A120U A145G C150A C169A: 0.00807; C82U A111U A120U C150A C169G: 0.0044.
Regarding C82G A111U C169U U176A, the reverse-splicing fitness is 0.0177.
Next, C82G A111U C169U U176G: 0.00639; A111U A120G A145G C150A C169U U176C: 0.024; C82U A111G A120C A145G: 0.0552.
Next, C82G A120C A145U C150A C169A U176G: 0.00421.
Next, C82U A111U A120G A145G C169A U176A: 0.0205; C82G A111U A120G A145G C150U C169A U176G: 0.00683; C82G A120U A145C C169G U176G: 0.00141.
Turning to A111C A120U C150A C169A, the reverse-splicing fitness came out at 0.00557.
Next, C82G A111U A120U A145G C150A U176A: 0.00769.
The result for A145U C150U C169G reads 0.215.
Next, C82A A111G A120G C169A: 0.0105; C82A A120G A145C C150A C169U: 0.00736.
As for C82U A120G A145G C169G U176A, the reverse-splicing fitness was 0.0223.
For the variant C82G A111U A120G A145C C169U U176A, the reverse-splicing fitness was determined as 0.0203.
The result for C82G A111U A120U C150U C169U reads 0.00485.
